The text below walks through data of patent US20220089743A1 (Chugai, published 2022).

Where two headings read alike, the source gives them in different places.

Experiment [1] deals with T1, HLA-DQ7.5 on Ba/F3 cells (human, UniProt P01909 24-216; P01920 33-230, limits assumed).
T1 construct: whole, on cells; also called Ba/F3-HLA-DQ7.5
The experiment can be described thus: FACS, Ba/F3 cells; %MFI with IC17dK 0 and DQN0139bb 100. (Flow cytometry measures light scatter and fluorescence of single cells or particles in a stream.)

Experiment [2] deals with T2, HLA-DQ7.3 on Ba/F3 cells (human, UniProt P01909 24-216; P01920 33-230, limits assumed).
T2 construct: whole, on cells; also called Ba/F3-HLA-DQ7.3
T2 MHC II alpha: not shown
T2 MHC II beta: not shown
The description is as above.

In experiment [3] the target is T3, HLA-DQ2.2 on Ba/F3 cells (human, UniProt P01909 24-216, limits assumed).
T3 construct: whole, on cells; also called Ba/F3-HLA-DQ2.2
T3 MHC II alpha: not shown
T3 MHC II beta: not shown
Described as above.

In experiment [4] the target is T4, HLA-DQ8 on Ba/F3 cells (human, UniProt P01909 24-216; P01920 33-230, limits assumed).
T4 construct: whole, on cells; also called Ba/F3-HLA-DQ8
T4 MHC II alpha: not shown
T4 MHC II beta: not shown
Described as above.

Experiment [5] deals with T5, HLA-DQ2.5 on Ba/F3 cells (human, UniProt P01909 24-216, limits assumed).
T5 construct: whole, on cells; MHC class II without a fused peptide; also called Ba/F3-HLA-DQ2.5
The experiment is described as above.

Another experiment addresses T6, HLA-DP on Ba/F3 cells (human, UniProt P20036 29-222; P04440 30-225, limits assumed).
T6 construct: whole, on cells; also called Ba/F3-HLA-DP
Kind of experiment: FACS, Ba/F3 cells; raw MFI.

Another experiment deals with T7, HLA-DQ6.3 on Ba/F3 cells (human, UniProt P01920 33-230, limits assumed).
T7 construct: whole, on cells; also called Ba/F3-HLA-DQ6.3
T7 MHC II alpha: not shown
T7 MHC II beta: not shown
Kind of experiment: FACS, Ba/F3 cells; raw MFI.

Another experiment concerns the target T8, HLA-DR on Ba/F3 cells (human, UniProt P01903 26-216; P79483 30-227, limits assumed).
T8 construct: whole, on cells; also called Ba/F3-HLA-DR
T8 MHC II alpha: not shown
T8 MHC II beta: not shown
The experiment can be described thus: FACS, Ba/F3 cells; raw MFI.

The next experiment addresses T9, HLA-DQ5.1 on Ba/F3 cells (human, limits assumed).
T9 construct: whole, on cells; also called Ba/F3-HLA-DQ5.1
T9 MHC II alpha: not shown
T9 MHC II beta: not shown
The experiment can be described thus: FACS, Ba/F3 cells; raw MFI.

Experiment [6] deals with HLA-DQ2.5 on IHW09023 cells loaded with gamma 1 gliadin peptide (human; wheat). Kind of experiment: cell-based or functional assay.
For experiment [7], the target named is HLA-DQ2.5 on IHW09023 cells loaded with gamma 4d gliadin peptide (human; wheat). Kind of experiment: cell-based or functional assay.
Experiment [8] deals with HLA-DQ2.5 on IHW09023 cells loaded with gamma 4a gliadin peptide (human; wheat). Kind of experiment: cell-based or functional assay.
Experiment [9] addresses HLA-DQ2.5 on IHW09023 cells loaded with gamma 3 gliadin peptide (human; wheat). The experiment can be described thus: cell-based or functional assay.
Experiment [10] deals with HLA-DQ2.5 on IHW09023 cells loaded with gamma 2 gliadin peptide (human; wheat). Kind of experiment: cell-based or functional assay.
The target of experiment [11] is HLA-DQ2.5 on IHW09023 cells loaded with omega1/2 gliadin peptide (human; wheat). Kind of experiment: cell-based or functional assay.
For experiment [12], the target named is HLA-DQ2.5 on IHW09023 cells loaded with 33 mer gliadin peptide (human; wheat). Kind of experiment: cell-based or functional assay.
Experiment [13] concerns the target HLA-DQ2.5 on IHW09023 cells loaded with BC hordein peptide (human; barley). The experiment can be described thus: cell-based or functional assay.
Experiment [14] has as its target T1, HLA-DQ7.5 on Ba/F3 cells. Kind of experiment: FACS, Ba/F3 cells; %MFI with IC17dK 0 and DQN0139bb 100. This is another data set of the same source.
In experiment [15] the target is T2, HLA-DQ7.3 on Ba/F3 cells. Described as above.
Experiment [16] deals with T3, HLA-DQ2.2 on Ba/F3 cells. Described as above.
Experiment [17] addresses T4, HLA-DQ8 on Ba/F3 cells. The description is as above.
For experiment [18], the target named is T5, HLA-DQ2.5 on Ba/F3 cells. The description is as above. This is another data set of the same source.

T6 sequence (P20036 29-222 limits assumed, chain 1 of 4, other chains not shown): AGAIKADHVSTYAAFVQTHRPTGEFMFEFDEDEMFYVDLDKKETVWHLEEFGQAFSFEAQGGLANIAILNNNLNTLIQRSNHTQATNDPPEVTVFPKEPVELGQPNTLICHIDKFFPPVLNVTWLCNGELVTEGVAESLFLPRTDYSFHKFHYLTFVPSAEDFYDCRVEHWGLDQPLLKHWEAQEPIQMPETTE
T6 sequence (P04440 30-225 limits assumed, chain 2 of 4, other chains not shown): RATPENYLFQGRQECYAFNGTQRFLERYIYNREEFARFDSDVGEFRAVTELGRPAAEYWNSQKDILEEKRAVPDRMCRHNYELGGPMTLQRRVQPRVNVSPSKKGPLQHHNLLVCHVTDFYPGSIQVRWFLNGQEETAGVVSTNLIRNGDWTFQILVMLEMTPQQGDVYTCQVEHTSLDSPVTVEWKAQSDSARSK

B1: DQN0344H1013/L0620//DQN0385H1352/L0681-F6 (bispecific antibody)
heavy 1: QVQLVESGGGVVQPGRSLRLSCAASGFTFSSAYWMVWVRQAPGQGLEWMGAVYGGSDTTYYAKWTEGRFTISRDTSKNTLYLQMNSLRAEDTAVYYCAREPLNYYYYGELNVWGQGTLVTVSSASTKGPSVFPLAPSSKSTSGGTAALGCLVKDYFPEPVTVSWNSGALTSGVHTFPAVLKSSGLYSLSSVVTVPSSSLGTQTYICNVNHKPSNTKVDKRVEPKSCDKTHTCPPCPAPELRRGPSVFLFPPKPKDTLMISRTPEVTCVVVDVSHEDPEVKFNWYVDGVEVHNAKTKPREEQYNSTYRVVSVLTVLHQDWLNGKEYKCKVSNKALPAPIEKTISKAKGQPREPQVYTLPPSREEMTKNQVSLTCLVKGFYPSDIAVEWESNGQPENNYKTTPPYLDSDGSFFLYSKLTVDKSRWQEGNVFSCSVLHEALHAHYTREELSLSP
light 1: DIQMTQSPSSLSASVGDRVTITCQATENIYSGLAWYQQKPGKAPKLLIYYVSTLAYGIPARFSGSGSGTDFTLTISSLEPEDFAVYYCQTYEDVSAVTFGQGTKVEIKRTVAAPSVFIFPPSDEQLKSGTAEVVCLLNNFYPREAKVQWKVDNALQSGNSEESVTEQDSKDSTYSLSSTLTLSKADYEKHKVYACEVTHQGLSSPVTKSFNRGEC
heavy 2: QVQLVESGGGVVQPGRSLRLSCAASGFEFSEWYFMSWVRQAPGKGLEWVASIDTGSGSIDYAEWVEGRFTISRDNSKNTLYLQMNSLRAEDTAVYYCARDIGIDYNFWGPGTLVTVSSASTKGPSVFPLAPSSKSTSGGTAALGCLVEDYFPEPVTVSWNSGALTSGVHTFPAVLESSGLYSLSSVVTVPSSSLGTKTYICNVNHKPSNTKVDKRVEPKSCDKTHTCPPCPAPELRRGPSVFLFPPKPKDTLMISRTPEVTCVVVDVSHEDPEVKFNWYVDGVEVHNAKTKPREEQYNSTYRVVSVLTVLHQDWLNGKEYKCKVSNKALPAPIEKTISKAKGQPREPQVYTLPPSRKEMTKNQVSLTCLVKGFYPSDIAVEWESNGQPENNYKTTPPYLDSDGSFFLYSKLTVDKSRWQQGNVFSCSVLHEALHAHYTRKELSLSP
light 2: DIQMTQSPSSLSASVGDRVTITCQTTQSISSYLNWYQQKPGQPPKLLIYYASTKAEGIPARFSGSGLGTDFTLTISSLEPEDFAVYYCHYGISKVSFGQGTKVEIKRTVAAPSVFIFPPSDEQLKSGTAKVVCLLNNFYPREAKVQWKVDNALQSGNSKESVTEQDSKDSTYSLSSTLTLSKADYEKHKVYACEVTHQGLSSPVTKSFNRGEC
B1: the binding result with HLA-DQ7.5 on Ba/F3 cells [1], with HLA-DQ7.3 on Ba/F3 cells [2], in the experiment with HLA-DQ2.2 on Ba/F3 cells [3], with HLA-DQ8 on Ba/F3 cells [4], with HLA-DQ2.5 on Ba/F3 cells [5] and in the experiment with HLA-DP on Ba/F3 cells was “no binding (tested: 0.05 ug/mL)” throughout. Besides, the binding result in the experiment with HLA-DQ6.3 on Ba/F3 cells, with HLA-DR on Ba/F3 cells and in the experiment with HLA-DQ5.1 on Ba/F3 cells was “no binding (tested: 0.05 ug/mL)” throughout. For the same molecule, the “IC50, γ1 gliadin TCR, 250 nM γ1 gliadin” value in experiment [6] stood at 1.71 ng/mL. The “IC50, γ4d gliadin TCR, 100 µM γ4d gliadin” value in experiment [7] is 3.15 ng/mL. Moreover, in experiment [8], the “IC50, γ4a gliadin TCR, 25 µM γ4a gliadin” value is 1730 ng/mL. Moreover, the “IC50, γ3 gliadin TCR, 100 µM γ3 gliadin” value in experiment [9] worked out at 3.15 ng/mL. Besides, the “IC50, γ2 gliadin TCR, 250 nM γ2 gliadin” value in experiment [10] stood at 279 ng/mL. Moreover, in experiment [11], the “IC50, ω1 gliadin TCR, 25 µM ω1/2 gliadin” value was determined as 1.88 ng/mL. The “IC50, ω2 gliadin TCR, 250 nM ω1/2 gliadin” value in experiment [11] worked out at 0.27 ng/mL. In experiment [12], the “IC50, α1a gliadin TCR, 250 nM 33mer gliadin” value was 0.26 ng/mL. For the same molecule, the “IC50, α1b gliadin TCR, 250 nM 33mer gliadin” value in experiment [12] came to 1.13 ng/mL. Moreover, the “IC50, α2 gliadin TCR, 250 nM 33mer gliadin” value in [12] amounted to 0.38 ng/mL. Moreover, in experiment [13], the “IC50, BC hordein TCR, 250 nM BC hordein” value was 11.6 ng/mL.

B2: DQN0344H1013/L0620//DQN0385H1521/L0605-F6 (bispecific antibody)
heavy 1: QVQLVESGGGVVQPGRSLRLSCAASGFTFSSAYWMVWVRQAPGQGLEWMGAVYGGSDTTYYAKWTEGRFTISRDTSKNTLYLQMNSLRAEDTAVYYCAREPLNYYYYGELNVWGQGTLVTVSSASTKGPSVFPLAPSSKSTSGGTAALGCLVKDYFPEPVTVSWNSGALTSGVHTFPAVLKSSGLYSLSSVVTVPSSSLGTQTYICNVNHKPSNTKVDKRVEPKSCDKTHTCPPCPAPELRRGPSVFLFPPKPKDTLMISRTPEVTCVVVDVSHEDPEVKFNWYVDGVEVHNAKTKPREEQYNSTYRVVSVLTVLHQDWLNGKEYKCKVSNKALPAPIEKTISKAKGQPREPQVYTLPPSREEMTKNQVSLTCLVKGFYPSDIAVEWESNGQPENNYKTTPPYLDSDGSFFLYSKLTVDKSRWQEGNVFSCSVLHEALHAHYTREELSLSP
light 1: DIQMTQSPSSLSASVGDRVTITCQATENIYSGLAWYQQKPGKAPKLLIYYVSTLAYGIPARFSGSGSGTDFTLTISSLEPEDFAVYYCQTYEDVSAVTFGQGTKVEIKRTVAAPSVFIFPPSDEQLKSGTAEVVCLLNNFYPREAKVQWKVDNALQSGNSEESVTEQDSKDSTYSLSSTLTLSKADYEKHKVYACEVTHQGLSSPVTKSFNRGEC
heavy 2: QVQLVESGGGVVQPGRSLRLSCAASGFTFESWYFMSWVRQAPGKGLEWVASIDTGSGSIDYAEWVEGRFTISRDNSKNTLYLQMNSLRAEDTAVYYCARDIGIDYNFWGPGTLVTVSSASTKGPSVFPLAPSSKSTSGGTAALGCLVEDYFPEPVTVSWNSGALTSGVHTFPAVLESSGLYSLSSVVTVPSSSLGTKTYICNVNHKPSNTKVDKRVEPKSCDKTHTCPPCPAPELRRGPSVFLFPPKPKDTLMISRTPEVTCVVVDVSHEDPEVKFNWYVDGVEVHNAKTKPREEQYNSTYRVVSVLTVLHQDWLNGKEYKCKVSNKALPAPIEKTISKAKGQPREPQVYTLPPSRKEMTKNQVSLTCLVKGFYPSDIAVEWESNGQPENNYKTTPPYLDSDGSFFLYSKLTVDKSRWQQGNVFSCSVLHEALHAHYTRKELSLSP
light 2: DIQMTQSPSSLSASVGDRVTITCQTTQSISSYLNWYQQKPGQPPKLLIYYASTKAEGIPARFSGSGSGTDFTLTISSLEPEDFAVYYCHYGISKVSFGQGTKVEIKRTVAAPSVFIFPPSDEQLKSGTAKVVCLLNNFYPREAKVQWKVDNALQSGNSKESVTEQDSKDSTYSLSSTLTLSKADYEKHKVYACEVTHQGLSSPVTKSFNRGEC
Take B2: the binding result with HLA-DP on Ba/F3 cells, in the experiment with HLA-DQ6.3 on Ba/F3 cells, with HLA-DR on Ba/F3 cells, in the experiment with HLA-DQ5.1 on Ba/F3 cells, with HLA-DQ7.5 on Ba/F3 cells [14] and in the experiment with HLA-DQ7.3 on Ba/F3 cells [15] was “no binding (tested: 0.05 ug/mL)” in each case. Besides, the binding result in the experiment with HLA-DQ2.2 on Ba/F3 cells [16], with HLA-DQ8 on Ba/F3 cells [17] and with HLA-DQ2.5 on Ba/F3 cells [18] was “no binding (tested: 0.05 ug/mL)” each time. Moreover, the “IC50, γ1 gliadin TCR, 250 nM γ1 gliadin” value in experiment [6] came out at 0.68 ng/mL. In addition, the “IC50, γ4d gliadin TCR, 100 µM γ4d gliadin” value in experiment [7] worked out at 13 ng/mL. The “IC50, γ4a gliadin TCR, 25 µM γ4a gliadin” value in experiment [8] was 1350 ng/mL. For the same molecule, in experiment [9], the “IC50, γ3 gliadin TCR, 100 µM γ3 gliadin” value turned out to be 1.4 ng/mL. The “IC50, γ2 gliadin TCR, 250 nM γ2 gliadin” value in experiment [10] is 853 ng/mL. Besides, in experiment [11], the “IC50, ω1 gliadin TCR, 25 µM ω1/2 gliadin” value stood at 1.91 ng/mL. Moreover, the “IC50, α1a gliadin TCR, 250 nM 33mer gliadin” value in [12] was found to be 0.28 ng/mL. In addition, the “IC50, α1b gliadin TCR, 250 nM 33mer gliadin” value in experiment [12] was 1.76 ng/mL. In addition, in experiment [12], the “IC50, α2 gliadin TCR, 250 nM 33mer gliadin” value was determined as 0.33 ng/mL. Also, the “IC50, BC hordein TCR, 250 nM BC hordein” value in experiment [13] was determined as 8.98 ng/mL.
